Experimental data: patent US20230303994

Key:
[1] = biological target: pre-pro-insulin glargine
[2] = biological target: pre-pro-human insulin

B1: trypsin variant SEQ ID NO: 92 (protein)
chain: IVGGYTCAANSIPYQVSLNSGSHRCGGSLINSQWVVSAAHCYKPRIQVRLGEHNIHVLEGNEQFINAAKIITHPNFNPNTLDNDIMLIKLSSPATLNSAVATVSLPTSCAAAGTECLISGWGNTCSSGSSMPSLLQCLKAPVLSDSSCKSSYPGQITGNMICVGFLEGGKDACQGDSGGPVVCNGQLQGIVSSGYGCAQKNKPGVYTKVCNYVNWIQQTIAAN
For B1, the Purity Insulin Glargine [1] was 88.1 area %, the Yield [1] was over 90% and the desArg [1] was 0.9 area %. For the same protein, the desThr [1] was 0.6 area %, the “Activity PPI cleavage” value [2] was “yes” and the Selectivity [2] was over 90%.

B2: trypsin variant SEQ ID NO: 102 (protein)
chain: IVGGYTCAANSIPYQVSLNSGSHRCGGSLINSQWVVSAAHCYKPRIQVRLGEHNIHVLEGNEQFINAAKIITHPNFNPNTLDNDIMLIKLSSPATLNSHVATVSLPTSCAAAGTECLISGWGNTSSSGSSMPSLLQCLKAPVLSDSSCKSSYPGQITGNMICVGFLEGGADACQGDSGGPVVCNGQLQGIVSSGYGCAQKNKPGVYTKVCNYVNWIQQTIAAN
B2 gave a Purity Insulin Glargine [1] of 88.7 area %, a Yield [1] of over 90% and a desArg [1] of 0.4 area %. The desThr [1] was 1.2 area %, the “Activity PPI cleavage” value [2] was “yes” and the Selectivity [2] was over 90%.

B3: trypsin variant SEQ ID NO: 100 (protein)
chain: IVGGYTCAANSIPYQVSLNSGSHRCGGSLINSQWVVSAAHCYKPRIQVRLGEHNIDVLEGNEQFINAAKIITHPNFNPNTLDNDIMLIKLSSPATLNSHVATVSLPTSCAAAGTECLISGWGNTCSSGSSMPSLLQCLKAPVLSDSSCKSSYPGQITGNMICVGFLEGGADACQGDSGGPVVCNGQLQGIVSSGYGCAQKNKPGVYTKVCNYVNWIQQTIAAN
B3 was tested, and the Purity Insulin Glargine [1] was 80 area %, the Yield [1] was over 80% and the desArg [1] was 0.7 area %. The desThr [1] was 0.3 area %, the “Activity PPI cleavage” value [2] was “yes” and the Selectivity [2] was over 90%.

B4: trypsin variant SEQ ID NO: 93 (protein)
chain: IVGGYTCAANSIPYQVSLNSGSHRCGGSLINSQWVVSAAHCYKSRIQVRLGEHNIDVLEGNEQFINAAKIITHPNFNPNTLDNDIMLIKLSSPATLNSNVATVSLPTSCAAAGTECLISGWGNTCSSGSSMPSLLQCLKAPVLSDSSCKSSYPGQITGNMICVGFLEGGADACQGDSGGPVVCNGQLQGIVSSGYGCAQKNKPGVYTKVCNYVNWIQQTIAAN
B4 showed a Purity Insulin Glargine [1] of 71.3 area %, a Yield [1] of over 75% and a desArg [1] of 0.7 area %. For the same protein, the desThr [1] was 0.3 area %, the “Activity PPI cleavage” value [2] was “yes” and the Selectivity [2] was over 90%.

B5: trypsin variant SEQ ID NO: 98 (protein)
chain: IVGGYTCAANSIPYQVSLNSGSHRCGGSLINSQWVVSAAHCYKPRIQVRLGEHNIHVLEGNEQFINAAKIITHPNFNPNTLDNDIMLIKLSSPATLNSAVATVSLPTSCAAAGTECLISGWGNTASSGSSMPSLLQCLKAPVLSDSSCKSSYPGQITGNMICVGFLEGGADSCQGDSGGPVVCNGQLQGIVSSGYGCAQKNKPGVYTKVCNYVNWIQQTIAAN
Work on B5 yielded a Purity Insulin Glargine [1] of 89.4 area %, a Yield [1] of over 90% and a desArg [1] of 0.9 area %. The desThr [1] was 2.7 area %, the “Activity PPI cleavage” value [2] was “yes” and the Selectivity [2] was over 90%.

B6: trypsin variant SEQ ID NO: 96 (protein)
chain: IVGGYTCAANSIPYQVSLNSGSHRCGGSLINSQWVVSAAHCYKPRIQVRLGEHNIDVLEGNEQFINAAKIITHPNFNPNTLDNDIMLIKLSSPATLNSHVATVSLPRSCAAAGTECLISGWGNTSSSGSSMPSLLQCLKAPVLSDSSCKSSYPGQITGNMICVGFLEGGADACQGDSGGPVVCNGQLQGIVSSGYGCAQKNKPGVYTKVCNYVNWIQQTIAAN
Protein B6 has a Purity Insulin Glargine [1] of 78.7 area %, a Yield [1] of over 80% and a desArg [1] of 0.7 area %. The desThr [1] was 0.3 area %, the “Activity PPI cleavage” value [2] was “yes” and the Selectivity [2] was over 90%.

B7: trypsin variant SEQ ID NO: 104 (protein)
chain: IVGGYTCAANSIPYQVSLNSGSHRCGGSLINSQWVVSAAHCYKSRIQVRLGEHNIHVLEGNEQFINAAKIITHPNFNPNTLDNDIMLIKLSSPATLNSNVATVSLPTSCAAAGTECLISGWGNTCSSGSSMPSLLQCLKAPVLSDSSCKSSYPGQITGNMICVGFLEGGADACQGDSGGPVVCNGQLQGIVSSGYGCAQKNKPGVYTKVCNYVNWIQQTIAAN
Protein B7 has a Purity Insulin Glargine [1] of 89.3 area %, a Yield [1] of over 90% and a desArg [1] of 1.1 area %. For the same protein, the desThr [1] was 1 area %, the “Activity PPI cleavage” value [2] was “yes” and the Selectivity [2] was over 90%.

B8: porcine trypsin variant no. 105 (SEQ ID NO: 105) (protein)
chain: IVGGYTCAANSIPYQVSLNSGSHRCGGSLINSQWVVSAAHCYKSRIQVRLGEHNIHVLEGNEQFINAAKIITHPNFNPNTLDNDIMLIKLSSPATLNSNVATVSLPTSCAAAGTECLISGWGNTASSGSSYPSLLQCLKAPVLSDSSCKSSYPGQITGNMICVGFLEGGADACQGDSGGPVVCNGQLQGIVSSGYGCAQKNKPGVYTKVCNYVNWIQQTIAAN
B8 gave a Purity Insulin Glargine [1] of 88.9 area %, a Yield [1] of over 90% and a desArg [1] of 1 area %. For the same protein, the desThr [1] was 0.9 area %, the “Activity PPI cleavage” value [2] was “yes” and the Selectivity [2] was over 90%.

B9: trypsin variant SEQ ID NO: 106 (protein)
chain: IVGGYTCAANSIPYQVSLNSGSHRCGGSLINSQWVVSAAHCYKSRIQVRLGEHNIHVLEGNEQFINAAKIITHPNFNPNTLDNDIMLIKLSSPATLNSAVATVSLPTSCAAAGTECLISGWGNTCSSGSSMPSLLQCLKAPVLSDSSCKSSYPGQITGNMICVGFLEGGADACQGDSGGPVVCNGQLQGIVSSGYGCAQKNKPGVYTKVCNYVNWIQQTIAAN
In the case of B9, the Purity Insulin Glargine [1] is reported as 86.8 area %, the Yield [1] is reported as over 90% and the desArg [1] is reported as 0.7 area %. For the same protein, the desThr [1] was 1 area %, the “Activity PPI cleavage” value [2] was “yes” and the Selectivity [2] was over 90%.

B10: trypsin variant SEQ ID NO: 97 (protein)
chain: IVGGYTCAANSIPYQVSLNSGSHRCGGSLINSQWVVSAAHCYKPRIQVRLGEHNIHVLEGNEQFINAAKIITHPNFNPNTLDNDIMLIKLSSPATLNSAVATVSLPTSCAAAGTECLISGWGNTASSGSSMPSLLQCLKAPVLSDSSCKSSYPGQITGNMICVGFLEGGADACQGDSGGPVVCNGQLQGIVSSGYGCAQKNKPGVYTKVCNYVNWIQQTIAAN
In the case of B10, the Purity Insulin Glargine [1] is reported as 89.4 area %, the Yield [1] is reported as over 90% and the desArg [1] is reported as under 0.5 area %. The desThr [1] was 1.2 area %, the “Activity PPI cleavage” value [2] was “yes” and the Selectivity [2] was over 90%.

B11: trypsin variant SEQ ID NO: 103 (protein)
chain: IVGGYTCAANSIPYQVSLNSGSHRCGGSLINSQWVVSAAHCYKPRIQVRLGEHNIHVLEGNEQFINAAKIITHPNFNPNTLDNDIMLIKLSSPATLNSHVATVSLPTSCAAAGTECLISGWGNTSSSGSSMPSLLQCLKAPVLSDSSCKSSYPGQITGNMICVGFLEGGADSCQGDSGGPVVCNGQLQGIVSSGYGCAQKNKPGVYTKVCNYVNWIQQTIAAN
B11 showed a Purity Insulin Glargine [1] of 90.7 area %, a Yield [1] of over 90% and a desArg [1] of 0.9 area %. The desThr [1] was 1.4 area %, the “Activity PPI cleavage” value [2] was “yes” and the Selectivity [2] was over 90%.

B12: trypsin variant SEQ ID NO: 99 (protein)
chain: IVGGYTCAANSIPYQVSLNSGSHRCGGSLINSQWVVSAAHCYKSRIQVRLGEHNIHVLEGNEQFINAAKIITHPNFNPNTLDNDIMLIKLSSPATLNSNVATVSLPTSCAAAGTECLISGWGNTSSSGSSYPSLLQCLKAPVLSDSSCKSSYPGQITGNMICVGFLEGGADACQGDSGGPVVCNGQLQGIVSSGYGCAQKNKPGVYTKVCNYVNWIQQTIAAN
In the case of B12, the Purity Insulin Glargine [1] is reported as 89.2 area %, the Yield [1] is reported as over 90% and the desArg [1] is reported as 0.9 area %. The desThr [1] was 1 area %, the “Activity PPI cleavage” value [2] was “yes” and the Selectivity [2] was over 80%.

B13: trypsin variant SEQ ID NO: 101 (protein)
chain: IVGGYTCAANSIPYQVSLNSGSHRCGGSLINSQWVVSAAHCYKSRIQVRLGEHNIHVLEGNEQFINAAKIITHPNFNPNTLDNDIMLIKLSSPATLNSNVATVSLPTSCAAAGTECLISGWGNTSSSGSSMPSLLQCLKAPVLSDSSCKSSYPGQITGNMICVGFLEGGADACQGDSGGPVVCNGQLQGIVSSGYGCAQKNKPGVYTKVCNYVNWIQQTIAAN
Protein B13 has a Purity Insulin Glargine [1] of 89.2 area %, a Yield [1] of over 90% and a desArg [1] of 1 area %. For the same protein, the desThr [1] was 0.4 area %, the “Activity PPI cleavage” value [2] was “yes” and the Selectivity [2] was over 90%.

B14: trypsin variant SEQ ID NO: 94 (protein)
chain: IVGGYTCAANSIPYQVSLNSGSHRCGGSLINSQWVVSAAHCYKPRIQVRLGEHNIHVLEGNEQFINAAKIITHPNFNGNTLDNDIMLIKLSSPATLNSNVATVSLPRSCAAAGTECLISGWGNTCSSGSSMPSLLQCLKAPVLSDSSCKSSYPGQITGNMICVGFLEGGADACQGDSGGPVVCNGQLQGIVSSGYGCAQKNKPGVYTKVCNYVNWIQQTIAAN
Work on B14 yielded a Purity Insulin Glargine [1] of 85.2 area %, a Yield [1] of over 90% and a desArg [1] of 0.8 area %. The desThr [1] was 0.3 area %, the “Activity PPI cleavage” value [2] was “yes” and the Selectivity [2] was over 90%.

B15: trypsin variant SEQ ID NO: 107 (protein)
chain: IVGGYTCAANSIPYQVSLNSGSHRCGGSLINSQWVVSAAHCYKPRIQVRLGEHNIHVLEGNEQFINAAKIITHPNFNPNTLDNDIMLIKLSSPATLNSHVATVSLPTSCAAAGTECLISGWGNTCSSGSSMPSLLQCLKAPVLSDSSCKSSYPGQITGNMICVGFLEGGADACQGDSGGPVVCNGQLQGIVSSGYGCAQKNKPGVYTKVCNYVNWIQQTIAAN
Protein B15 has a Purity Insulin Glargine [1] of 88.1 area %, a Yield [1] of over 90% and a desArg [1] of 0.4 area %. For the same protein, the desThr [1] was 1.3 area %, the “Activity PPI cleavage” value [2] was “yes” and the Selectivity [2] was over 90%.

B16: trypsin variant SEQ ID NO: 11 (protein)
chain: IVGGYTCAANSIPYQVSLNSGSHRCGGSLINSQWVVSAAHCYKSRIQVRLGEHNIDVLEGNEQFINAAKIITHPNFNGNTLDNDIMLIKLSSPATLNSNVATVSLPRSCAAAGTECLISGWGNTKSSGSSYPSLLQCLKAPVLSDSSCKSSYPGQITGNMICVGFLEGGKDACQGDSGGPVVCNGQLQGIVSSGYGCAQKNKPGVYTKVCNYVNWIQQTIAAN
For B16, the Purity Insulin Glargine [1] was 84.1 area %, the Yield [1] was over 90% and the desArg [1] was under 0.5 area %. The desThr [1] was 2.2 area %, the “Activity PPI cleavage” value [2] was “yes” and the Selectivity [2] was over 90%.

B17: trypsin variant SEQ ID NO: 95 (protein)
chain: IVGGYTCAANSIPYQVSLNSGSHRCGGSLINSQWVVSAAHCYKPRIQVRLGEHNIHVLEGNEQFINAAKIITHPNFNPNTLDNDIMLIKLSSPATLNSHVATVSLPRSCAAAGTECLISGWGNTSSSGSSMPSLLQCLKAPVLSDSSCKSSYPGQITGNMICVGFLEGGADACQGDSGGPVVCNGQLQGIVSSGYGCAQKNKPGVYTKVCNYVNWIQQTIAAN
In the case of B17, the Purity Insulin Glargine [1] is reported as 90 area %, the Yield [1] is reported as over 90% and the desArg [1] is reported as 1 area %. For the same protein, the desThr [1] was 0.6 area %, the “Activity PPI cleavage” value [2] was “yes” and the Selectivity [2] was over 90%.
